The text below walks through data of paper PMC9609998, “Bioimaging Nucleic-Acid Aptamers with Different Specificities in Human Glioblastoma Tissues Highlights Tumoral Heterogeneity”.

The data set addresses integrin α5β1 (in human FFPE glioblastoma sections) (human, UniProt P08648;P05556 42-1049;21-798). The experiment in a line: aptahistofluorescence; FFPE GBM, 1 or 2 µM aptamer; frozen sections too low to detect; Flow cytometry: 300,000 cells detached with 0.2 M EDTA, 30 min with Cy5-aptamer; tissue: selection buffer, 2% BSA +/- 100 µg/mL yeast tRNA block, 1 h on ice; aptamers denatured at 95 °C 3 min then ice 5 min; buffer composition, salt and pH not given in material. The conditions noted are these: protein: native; copies: 1;1; label: 3'-Cy5. (Flow cytometry measures light scatter and fluorescence of single cells or particles in a stream.)

Chain of integrin α5β1 (in human FFPE glioblastoma sections) (P08648 42-1049, chain 1 of 2): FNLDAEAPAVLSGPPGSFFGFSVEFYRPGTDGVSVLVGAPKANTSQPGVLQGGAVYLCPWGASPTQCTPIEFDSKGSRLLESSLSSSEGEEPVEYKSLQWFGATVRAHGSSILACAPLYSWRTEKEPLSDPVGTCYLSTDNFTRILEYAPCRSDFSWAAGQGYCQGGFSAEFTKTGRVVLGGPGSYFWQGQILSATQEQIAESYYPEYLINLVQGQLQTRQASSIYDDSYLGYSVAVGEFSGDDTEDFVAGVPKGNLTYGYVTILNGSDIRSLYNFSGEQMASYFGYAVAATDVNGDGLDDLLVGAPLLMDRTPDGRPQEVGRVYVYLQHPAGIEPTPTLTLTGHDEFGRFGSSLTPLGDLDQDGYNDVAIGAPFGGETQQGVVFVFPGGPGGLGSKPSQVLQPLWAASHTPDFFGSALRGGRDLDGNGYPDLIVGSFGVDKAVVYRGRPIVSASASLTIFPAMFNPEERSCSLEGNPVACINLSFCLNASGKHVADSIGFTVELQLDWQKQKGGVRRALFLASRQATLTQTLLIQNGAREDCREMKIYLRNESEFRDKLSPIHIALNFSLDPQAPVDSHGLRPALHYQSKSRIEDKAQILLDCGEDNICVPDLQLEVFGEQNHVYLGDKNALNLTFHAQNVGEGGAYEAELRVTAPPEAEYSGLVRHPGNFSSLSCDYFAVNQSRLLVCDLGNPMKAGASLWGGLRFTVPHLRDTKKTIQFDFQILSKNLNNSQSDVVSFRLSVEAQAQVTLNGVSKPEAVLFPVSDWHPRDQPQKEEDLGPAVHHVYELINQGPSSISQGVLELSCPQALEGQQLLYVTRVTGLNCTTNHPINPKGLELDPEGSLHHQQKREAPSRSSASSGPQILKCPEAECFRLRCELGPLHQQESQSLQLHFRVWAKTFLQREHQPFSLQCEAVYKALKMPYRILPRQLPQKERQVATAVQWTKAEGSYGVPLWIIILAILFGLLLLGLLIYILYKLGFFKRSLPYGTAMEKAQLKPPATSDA
Chain of integrin α5β1 (in human FFPE glioblastoma sections) (P05556 21-798, chain 2 of 2): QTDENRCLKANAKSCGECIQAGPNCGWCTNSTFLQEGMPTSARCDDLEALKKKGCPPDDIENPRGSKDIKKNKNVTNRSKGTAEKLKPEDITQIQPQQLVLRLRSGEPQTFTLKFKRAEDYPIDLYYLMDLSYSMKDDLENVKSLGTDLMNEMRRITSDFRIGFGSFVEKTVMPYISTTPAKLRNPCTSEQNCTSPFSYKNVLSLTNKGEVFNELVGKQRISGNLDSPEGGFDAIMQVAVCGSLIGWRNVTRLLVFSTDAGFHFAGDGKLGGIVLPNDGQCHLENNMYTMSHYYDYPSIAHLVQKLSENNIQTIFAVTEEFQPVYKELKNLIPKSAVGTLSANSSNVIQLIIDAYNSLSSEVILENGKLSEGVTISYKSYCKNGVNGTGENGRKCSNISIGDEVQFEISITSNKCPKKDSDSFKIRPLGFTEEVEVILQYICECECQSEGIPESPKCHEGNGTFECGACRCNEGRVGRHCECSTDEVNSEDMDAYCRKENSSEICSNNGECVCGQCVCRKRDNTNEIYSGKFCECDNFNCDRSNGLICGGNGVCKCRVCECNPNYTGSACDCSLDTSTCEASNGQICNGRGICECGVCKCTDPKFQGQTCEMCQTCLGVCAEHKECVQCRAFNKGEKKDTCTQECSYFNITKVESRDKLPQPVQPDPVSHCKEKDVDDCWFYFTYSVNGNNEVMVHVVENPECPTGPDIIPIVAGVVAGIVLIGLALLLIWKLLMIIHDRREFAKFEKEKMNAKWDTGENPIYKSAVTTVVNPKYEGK

B1: H02-Cy5 (XNA)
RNA: GGUUACCAGCCUUCACUGCGGACGGACAGAGAGUGCAACCUGCCGUGCCGCACCACGGUCGGUCACAC
modifications: 2'-fluoro pyrimidines (2'F-RNA)
For the molecule B1, the binding result is “binds”.
